Here are results for 4 molecules from US20250304687A1 (LTZ THERAPEUTICS, published 2025).

T1: human CD79b recombinant protein (human, UniProt P40259 29-159, limits assumed)
T1 construct: Coated on ELISA plates at 1 ug/ml
T1 sequence (looked up): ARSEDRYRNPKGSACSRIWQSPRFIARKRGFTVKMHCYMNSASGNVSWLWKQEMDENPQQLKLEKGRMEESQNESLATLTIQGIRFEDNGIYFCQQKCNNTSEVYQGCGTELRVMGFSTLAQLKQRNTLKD

B1: 23D8/TRX4 (bispecific antibody, human IgG1, kappa, N297G)
light: AYDMTQTPASVEVAVGGTVTIKCQASQSISDNLSWYQQKPGQPPKLLIYDASDLASGVPSRFSGSGSGTEFTLTISDLEPADAATYYCQQDWISSNVDNTFGGGTEVVVKRTVAAPSVFIFPPSDEQLKSGTASVVCLLNNFYPREAKVQWKVDNALQSGNSQESVTEQDSKDSTYSLSSTLTLSKADYEKHKVYACEVTHQGLSSPVTKSFNRGEC
heavy: QSLEESGGGLVTPGGTLTLTCTVSGLSLSSNAINWVRQAPGKGLEWIGMIYSGGRIEYASWAKGRFTISKTSTTVDLKITSPTTEDTATYFCAKGMSPSAHSSDIWGPGTLVTVSASTKGPSVFPLAPSSKSTSGGTAALGCLVKDYFPEPVTVSWSSGALTSGVHTFPAVLQSSGLYSLSSVVTVPSSSLGTQTYICNVNHKPSNTKVDKKVEPKSCDKTHTCPPCPAPELLGGPSVFLFPPKPKDTLMISRTPEVTCVVVDVSHEDPEVKFNWYVDGVEVHNAKTKPREEQYGSTYRVVSVLTVLHQDWLNGKEYKCKVSNKALPAPIEKTISKAKGQPREPQVYTLPPSRDELTKNQVSLSCAVKGFYPSDIAVEWESNGQPENNYKTTPPVLDSDGSFFLVSKLTVDKSRWQQGNVFSCSVMHEALHNRFTQKSLSLSPGK
chain: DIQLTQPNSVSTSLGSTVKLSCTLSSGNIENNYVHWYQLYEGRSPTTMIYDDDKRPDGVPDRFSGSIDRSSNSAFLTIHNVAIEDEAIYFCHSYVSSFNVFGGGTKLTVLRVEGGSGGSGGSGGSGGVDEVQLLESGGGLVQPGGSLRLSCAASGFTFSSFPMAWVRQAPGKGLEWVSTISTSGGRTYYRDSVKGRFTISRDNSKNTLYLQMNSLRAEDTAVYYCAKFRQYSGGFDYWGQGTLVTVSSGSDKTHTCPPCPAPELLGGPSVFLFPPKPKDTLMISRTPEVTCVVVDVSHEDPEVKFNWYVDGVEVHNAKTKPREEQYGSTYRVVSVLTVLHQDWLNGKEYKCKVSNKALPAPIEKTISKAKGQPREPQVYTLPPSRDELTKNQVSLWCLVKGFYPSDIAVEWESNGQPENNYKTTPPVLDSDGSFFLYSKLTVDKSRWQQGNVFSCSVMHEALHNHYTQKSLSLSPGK
notes: Knob-into-hole format: anti-CD79b Fab arm (rabbit 23D8 variable regions on human IgG1/kappa) and anti-CD3 TRX4 (otelixizumab) scFv-Fc
B2: 23D8/msnCD3 (bispecific antibody, human IgG1, kappa, N297G)
light: AYDMTQTPASVEVAVGGTVTIKCQASQSISDNLSWYQQKPGQPPKLLIYDASDLASGVPSRFSGSGSGTEFTLTISDLEPADAATYYCQQDWISSNVDNTFGGGTEVVVKRTVAAPSVFIFPPSDEQLKSGTASVVCLLNNFYPREAKVQWKVDNALQSGNSQESVTEQDSKDSTYSLSSTLTLSKADYEKHKVYACEVTHQGLSSPVTKSFNRGEC
heavy: QSLEESGGGLVTPGGTLTLTCTVSGLSLSSNAINWVRQAPGKGLEWIGMIYSGGRIEYASWAKGRFTISKTSTTVDLKITSPTTEDTATYFCAKGMSPSAHSSDIWGPGTLVTVSASTKGPSVFPLAPSSKSTSGGTAALGCLVKDYFPEPVTVSWSSGALTSGVHTFPAVLQSSGLYSLSSVVTVPSSSLGTQTYICNVNHKPSNTKVDKKVEPKSCDKTHTCPPCPAPELLGGPSVFLFPPKPKDTLMISRTPEVTCVVVDVSHEDPEVKFNWYVDGVEVHNAKTKPREEQYGSTYRVVSVLTVLHQDWLNGKEYKCKVSNKALPAPIEKTISKAKGQPREPQVYTLPPSRDELTKNQVSLSCAVKGFYPSDIAVEWESNGQPENNYKTTPPVLDSDGSFFLVSKLTVDKSRWQQGNVFSCSVMHEALHNRFTQKSLSLSPGK
chain: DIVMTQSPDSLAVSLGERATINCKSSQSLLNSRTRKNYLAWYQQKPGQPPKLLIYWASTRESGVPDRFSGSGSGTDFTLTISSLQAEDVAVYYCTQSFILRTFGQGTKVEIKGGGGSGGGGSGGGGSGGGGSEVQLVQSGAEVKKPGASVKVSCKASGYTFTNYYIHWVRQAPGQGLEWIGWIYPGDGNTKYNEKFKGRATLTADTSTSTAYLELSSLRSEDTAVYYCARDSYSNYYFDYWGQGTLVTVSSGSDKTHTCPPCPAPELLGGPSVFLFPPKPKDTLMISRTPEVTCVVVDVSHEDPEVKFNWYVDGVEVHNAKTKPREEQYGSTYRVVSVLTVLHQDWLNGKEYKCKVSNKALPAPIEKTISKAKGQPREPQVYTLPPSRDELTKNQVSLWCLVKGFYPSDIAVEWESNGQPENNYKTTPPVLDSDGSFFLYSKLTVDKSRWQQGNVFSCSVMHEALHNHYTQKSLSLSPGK
notes: also called CD79b/CD3 bispecific antibody 23D8/msnCD3
B3: 23D8/38E4 (bispecific antibody, human IgG1, kappa, N297G)
light: AYDMTQTPASVEVAVGGTVTIKCQASQSISDNLSWYQQKPGQPPKLLIYDASDLASGVPSRFSGSGSGTEFTLTISDLEPADAATYYCQQDWISSNVDNTFGGGTEVVVKRTVAAPSVFIFPPSDEQLKSGTASVVCLLNNFYPREAKVQWKVDNALQSGNSQESVTEQDSKDSTYSLSSTLTLSKADYEKHKVYACEVTHQGLSSPVTKSFNRGEC
heavy: QSLEESGGGLVTPGGTLTLTCTVSGLSLSSNAINWVRQAPGKGLEWIGMIYSGGRIEYASWAKGRFTISKTSTTVDLKITSPTTEDTATYFCAKGMSPSAHSSDIWGPGTLVTVSASTKGPSVFPLAPSSKSTSGGTAALGCLVKDYFPEPVTVSWSSGALTSGVHTFPAVLQSSGLYSLSSVVTVPSSSLGTQTYICNVNHKPSNTKVDKKVEPKSCDKTHTCPPCPAPELLGGPSVFLFPPKPKDTLMISRTPEVTCVVVDVSHEDPEVKFNWYVDGVEVHNAKTKPREEQYGSTYRVVSVLTVLHQDWLNGKEYKCKVSNKALPAPIEKTISKAKGQPREPQVYTLPPSRDELTKNQVSLSCAVKGFYPSDIAVEWESNGQPENNYKTTPPVLDSDGSFFLVSKLTVDKSRWQQGNVFSCSVMHEALHNRFTQKSLSLSPGK
chain: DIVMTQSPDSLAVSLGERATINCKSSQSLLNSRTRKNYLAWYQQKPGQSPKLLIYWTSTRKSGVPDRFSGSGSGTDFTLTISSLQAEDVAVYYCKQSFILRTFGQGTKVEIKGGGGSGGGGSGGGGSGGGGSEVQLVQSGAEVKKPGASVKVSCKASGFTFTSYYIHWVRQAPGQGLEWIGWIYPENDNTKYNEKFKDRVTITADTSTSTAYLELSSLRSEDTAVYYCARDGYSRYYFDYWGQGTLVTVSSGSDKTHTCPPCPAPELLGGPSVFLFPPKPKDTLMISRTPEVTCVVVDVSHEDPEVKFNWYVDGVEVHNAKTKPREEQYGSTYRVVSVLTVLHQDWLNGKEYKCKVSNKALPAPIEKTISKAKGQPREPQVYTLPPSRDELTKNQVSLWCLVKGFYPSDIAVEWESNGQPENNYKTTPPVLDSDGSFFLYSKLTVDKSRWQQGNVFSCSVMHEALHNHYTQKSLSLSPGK
notes: Knob-into-hole format: anti-CD79b 23D8 Fab arm and anti-CD3 38E4 scFv-Fc; also called CD79b/CD3 bispecific antibody 23D8/38E4
B4: Pola/msnCD3 (bispecific antibody, human IgG1, kappa, N297G)
light: DIQLTQSPSSLSASVGDRVTITCKASQSVDYEGDSFLNWYQQKPGKAPKLLIYAASNLESGVPSRFSGSGSGTDFTLTISSLQPEDFATYYCQQSNEDPLTFGQGTKVEIKRTVAAPSVFIFPPSDEQLKSGTASVVCLLNNFYPREAKVQWKVDNALQSGNSQESVTEQDSKDSTYSLSSTLTLSKADYEKHKVYACEVTHQGLSSPVTKSFNRGEC
heavy: EVQLVESGGGLVQPGGSLRLSCAASGYTFSSYWIEWVRQAPGKGLEWIGEILPGGGDTNYNEIFKGRATFSADTSKNTAYLQMNSLRAEDTAVYYCTRRVPIRLDYWGQGTLVTVSSASTKGPSVFPLAPSSKSTSGGTAALGCLVKDYFPEPVTVSWSSGALTSGVHTFPAVLQSSGLYSLSSVVTVPSSSLGTQTYICNVNHKPSNTKVDKKVEPKSCDKTHTCPPCPAPELLGGPSVFLFPPKPKDTLMISRTPEVTCVVVDVSHEDPEVKFNWYVDGVEVHNAKTKPREEQYGSTYRVVSVLTVLHQDWLNGKEYKCKVSNKALPAPIEKTISKAKGQPREPQVYTLPPSRDELTKNQVSLSCAVKGFYPSDIAVEWESNGQPENNYKTTPPVLDSDGSFFLVSKLTVDKSRWQQGNVFSCSVMHEALHNRFTQKSLSLSPGK
chain: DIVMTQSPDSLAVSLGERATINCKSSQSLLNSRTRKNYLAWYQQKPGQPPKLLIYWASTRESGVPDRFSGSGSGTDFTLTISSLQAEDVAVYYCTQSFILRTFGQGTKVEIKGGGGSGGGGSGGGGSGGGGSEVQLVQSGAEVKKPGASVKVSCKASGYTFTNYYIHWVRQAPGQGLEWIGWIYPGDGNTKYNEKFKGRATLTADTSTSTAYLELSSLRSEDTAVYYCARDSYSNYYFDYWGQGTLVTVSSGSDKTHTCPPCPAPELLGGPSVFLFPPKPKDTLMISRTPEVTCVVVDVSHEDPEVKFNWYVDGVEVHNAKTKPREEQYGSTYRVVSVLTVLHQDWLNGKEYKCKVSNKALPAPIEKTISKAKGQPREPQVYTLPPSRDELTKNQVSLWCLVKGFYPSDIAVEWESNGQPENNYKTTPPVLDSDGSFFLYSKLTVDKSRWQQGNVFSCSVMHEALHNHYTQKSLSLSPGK
notes: also called CD79b/CD3 bispecific antibody Pola/msnCD3

For this test, the target named is T1, human CD79b recombinant protein. The test can be described thus: ELISA, coated human CD79b recombinant protein.
Description: The binding affinities of CD79b/CD3 bispecific antibodies to human CD79b recombinant protein were tested by ELISA. 1 μg/ml (in PBS buffer) of human CD79b recombinant protein was coated on ELISA plates overnight. ELISA plates were washed and blocked with blocking buffer (PBS+1% BSA) and then incubated with serial dilutions of primary CD79b/CD3 bispecific antibodies.
Turning to B1, the binding result is “binds”. For the molecule B2, the binding result is given as “binds”. As for B3, the binding result is recorded as “binds”. As to B4, the binding result is on record as “binds”.
